# In patent US20140286957A1 (Teva, published 2014):
# Read-outs that look alike come from different tables or passages of the source.
# T1: hCD1dmu (human with mouse segments)
# T1 chain: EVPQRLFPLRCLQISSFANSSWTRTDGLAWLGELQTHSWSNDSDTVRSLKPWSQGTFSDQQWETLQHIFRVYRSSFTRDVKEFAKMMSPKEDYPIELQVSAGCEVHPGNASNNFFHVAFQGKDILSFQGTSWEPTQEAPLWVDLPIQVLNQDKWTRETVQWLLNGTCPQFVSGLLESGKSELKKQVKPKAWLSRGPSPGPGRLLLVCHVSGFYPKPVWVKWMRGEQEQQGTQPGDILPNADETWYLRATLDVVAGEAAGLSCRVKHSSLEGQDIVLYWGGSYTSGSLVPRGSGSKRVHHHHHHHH
# T2: Mouse CD1d (mouse, UniProt P11609 22-305)
# T2 construct: Murine CD1d extracellular domain construct, HEK-293E; also called mCD1d; murine CD1d
# T2 sequence: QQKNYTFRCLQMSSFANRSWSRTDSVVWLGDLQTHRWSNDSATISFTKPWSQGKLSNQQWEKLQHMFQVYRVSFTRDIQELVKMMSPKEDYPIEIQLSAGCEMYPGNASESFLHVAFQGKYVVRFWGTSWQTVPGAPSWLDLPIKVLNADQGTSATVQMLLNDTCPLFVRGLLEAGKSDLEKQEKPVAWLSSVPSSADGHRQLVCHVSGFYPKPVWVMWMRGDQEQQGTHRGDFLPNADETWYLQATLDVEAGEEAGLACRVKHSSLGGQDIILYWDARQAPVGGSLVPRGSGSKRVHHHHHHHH
# T3: mCD1dhu (mouse with human segments)
# T3 chain: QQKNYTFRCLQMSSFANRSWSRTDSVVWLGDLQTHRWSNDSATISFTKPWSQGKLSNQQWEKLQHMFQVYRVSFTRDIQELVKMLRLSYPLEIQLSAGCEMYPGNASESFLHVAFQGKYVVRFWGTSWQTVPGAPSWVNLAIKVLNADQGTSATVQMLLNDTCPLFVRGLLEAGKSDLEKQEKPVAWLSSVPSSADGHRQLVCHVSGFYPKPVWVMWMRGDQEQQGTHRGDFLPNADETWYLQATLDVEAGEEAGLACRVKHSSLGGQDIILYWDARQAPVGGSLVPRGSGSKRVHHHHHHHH
# T4: Human CD1d on cells (human, UniProt P15813 20-335)
# T4 sequence (looked up): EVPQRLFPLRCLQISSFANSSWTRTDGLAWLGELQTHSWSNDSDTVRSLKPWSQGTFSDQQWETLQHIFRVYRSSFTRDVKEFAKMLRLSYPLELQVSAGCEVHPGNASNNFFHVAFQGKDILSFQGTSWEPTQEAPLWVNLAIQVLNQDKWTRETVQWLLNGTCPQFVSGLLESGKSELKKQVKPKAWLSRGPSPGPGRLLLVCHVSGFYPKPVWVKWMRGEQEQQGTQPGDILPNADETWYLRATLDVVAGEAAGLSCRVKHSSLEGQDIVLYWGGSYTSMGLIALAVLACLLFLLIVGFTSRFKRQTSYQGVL
# T5: CD1d tetramer loaded with α-GalCer (ProImmune) (UniProt P15813 20-301, limits assumed)
# T5 construct: Bought reagent; also called fluorochrome-conjugated CD1d tetramer
# T5 sequence (looked up): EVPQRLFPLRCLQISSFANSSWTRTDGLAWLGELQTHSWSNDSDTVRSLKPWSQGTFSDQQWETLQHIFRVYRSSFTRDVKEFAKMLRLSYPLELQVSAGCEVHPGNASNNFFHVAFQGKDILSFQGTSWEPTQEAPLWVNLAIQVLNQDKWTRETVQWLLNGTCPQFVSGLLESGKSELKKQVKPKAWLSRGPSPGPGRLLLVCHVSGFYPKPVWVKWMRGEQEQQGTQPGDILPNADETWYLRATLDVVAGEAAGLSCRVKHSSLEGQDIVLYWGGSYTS
# B1: 402.8 (antibody, V domains shown)
# VH: QVQLQESGPGLVRPSETLSLTCAVYGGSFSGYYWSWIRQPPGKGLEWIGEINHSGSTNYNPSLKSRVTISVDTSKNQFSLKLSSVTAADTAVYYCARGEIYDFWNSYMDVWGKGTTVTVSS
# VL: QTVVTQEPSLTVSPGGTVTLTCASSSGAVSSGNFPNWFQQKPGQAPRALIFSASNKHSWTPARFSGSLLGGKAVLTLSGVQPEDEAEYYCLLYFGDTQLGVFGGGTKVTVLG
# notes: Human IgG4 (S228P); biotinylated or Pacific Blue labelled in some assays
# B2: 401.11.158 (antibody, V domains shown)
# VH: QVQLVGSGGGLVKPGRSLRLSCAASGFTFDDYAMHWVRQAPGKGLEWVATIIWNSAIIGYADSVKGRFIVSRDNAKNSLYLQMNSLRAEDTALYYCAKDMCSSGGCPDGYFDSWGQGTLVTVSS
# VL: DIQMTQSPSSVSASVGDRVTITCRASQHISSWLAWYQQKPGKAPKLLIYAASSLQSGVPSRFSGSGSGTDFTLTISSLQPEDFATYYCQQANRFPLTFGGGTKLEIKR
# notes: IgG4 (S228P); biotinylated or Pacific Blue labelled in some assays
# What was measured:
# hCD1dmu = molecular target: T1, hCD1dmu; experiment: direct ELISA, plate coated with 1 µg/mL CD1d construct, HRP anti-human IgG (H+L) detection
# Human CD1d/β2M [1] = molecular target: T6, Human CD1d/β2M (human, UniProt P15813 20-301; P61769 21-119); experiment: as above
# T6 construct: also called hCD1d; recombinant human CD1d
# Mouse CD1d [2] = molecular target: T2, Mouse CD1d; experiment: as above
# mCD1dhu [3] = molecular target: T3, mCD1dhu; experiment: as above
# Human CD1d on cells [4] = molecular target: T4, Human CD1d on cells; experiment: cell-based or functional assay
# Human CD1d on cells [5] = molecular target: T4, Human CD1d on cells; experiment: cell-based or functional assay; remark: listed apart in the source
# Human CD1d on cells [6] = molecular target: T4, Human CD1d on cells; experiment: cell-based or functional assay; remark: listed apart in the source
# Human CD1d on cells [7] = molecular target: T4, Human CD1d on cells; experiment: cell-based or functional assay; remark: listed apart in the source
# Human CD1d/β2M [8] = molecular target: T6, Human CD1d/β2M; experiment: SPR, Protein A purified IgG
# Human CD1d on cells [9] = molecular target: T4, Human CD1d on cells; experiment: cell-based or functional assay; remark: listed apart in the source
# [10] = molecular target: T5, CD1d tetramer loaded with α-GalCer …; experiment: flow cytometry, inhibition of CD1d tetramer (10 nM) binding to NKTCR on J.RT3-T3.5 cells
# Method: To perform the assay, antibodies were prepared at decreasing concentrations from 10 μg/mL in 0.1% bovine serum albumin (BSA) in cold 1×PBS at pH 7.4. […] Wash steps were done in 0.1% BSA in 1×PBS. Data were acquired by flow cytometry and analyzed using flow cytometry analysis software (FlowJo® Treestar, Inc.).
# [11] = molecular target: Cynomolgus macaque CD1d on cells (cynomolgus macaque); experiment: flow cytometry, biotinylated antibody and streptavidin-PE on cynomolgus PBMC, gated live cells
# Human CD1d/β2M [12] = molecular target: T6, Human CD1d/β2M; experiment: SPR, IgG captured, CD1d/β2M analyte
# Method: Purified antibodies were also subjected to full kinetic characterization using a BIACORE™ T100 biosensor (GE Healthcare). Approximately 10,000 RU of anti-human IgG (Invitrogen cat# H10500) was immobilized on a CM5 Series S Sensor chip, using standard amine coupling chemistry in flow cell (FC) 1 and FC2 (or alternatively FC3 and FC4) of the BIACORE™ T100 Biosensor. The running buffer used was HBS-EP-1-(GE Healthcare) and interactions measured at 25° C. Peak purified IgGs were diluted to 10 nM in running buffer, and captured on FC2 (or alternatively FC4) at a flow rate of 10 μL/min in order to capture 50-80 RU of IgG. […] The contact time for association was 120 sec and dissociation measured for 20 mins for the highest concentration and 240 sec for all other concentrations in the series. The sensorgram data from FC2 was subtracted from FC1 and a buffer only control.
# Human CD1d on cells [13] = molecular target: T4, Human CD1d on cells; experiment: cell-based or functional assay; remark: listed apart in the source
# Human CD1d on cells [14] = molecular target: T4, Human CD1d on cells; experiment: cell-based or functional assay; remark: listed apart in the source
# Human CD1d on cells [15] = molecular target: T4, Human CD1d on cells; experiment: cell-based or functional assay; remark: listed apart in the source
# Human CD1d/β2M [16] = molecular target: T6, Human CD1d/β2M; experiment: SPR
# Human CD1d on cells [17] = molecular target: T4, Human CD1d on cells; experiment: cell-based or functional assay; remark: listed apart in the source
# Human CD1d on cells [18] = molecular target: T4, Human CD1d on cells; experiment: cell-based or functional assay; remark: listed apart in the source
# Human CD1d on cells [19] = molecular target: T4, Human CD1d on cells; experiment: cell-based or functional assay; remark: listed apart in the source
# Human CD1d/β2M [20] = molecular target: T6, Human CD1d/β2M; experiment: direct ELISA, plate coated with 1 µg/mL CD1d construct, HRP anti-human IgG (H+L) detection; remark: listed apart in the source
# Mouse CD1d [21] = molecular target: T2, Mouse CD1d; experiment: as above; remark: listed apart in the source
# mCD1dhu [22] = molecular target: T3, mCD1dhu; experiment: as above
binder,measurement,setting,value
B1,binding result,hCD1dmu,no binding (tested: 10 µg/mL)
same,EC50 (read off the curve),Human CD1d/β2M [1],~6 ng/mL
same,binding result,Mouse CD1d [2],no binding (tested: 10 µg/mL)
same,EC50 (read off the curve),mCD1dhu [3],~5 ng/mL
same,"fold potency against 51.1, IL-2 release",Human CD1d on cells [4],~17 fold
same,fold potency against antibody 42 (C24:1 βGluCer),Human CD1d on cells [4],≤ 139 fold
same,fold potency against antibody 42 (THP-1 assay),Human CD1d on cells [4],≤ 180 fold
same,fold potency against antibody 42 (moDC assay),Human CD1d on cells [4],≤ 50 fold
same,"fold potency against antibody 42, IL-2 release",Human CD1d on cells [4],~25 fold
same,fold potency against antibody 51.1 (C24:1 βGluCer),Human CD1d on cells [4],≤ 112 fold
same,IFN-γ EC50 (primary CD14+ cells),Human CD1d on cells [5],28.6 ng/mL
same,IL-4 EC50 (primary CD14+ cells),Human CD1d on cells [5],4 ng/mL
same,IL-5 EC50 (primary CD14+ cells),Human CD1d on cells [5],6.9 ng/mL
same,IL-13 EC50 (primary CD14+ cells),Human CD1d on cells [5],39.9 ng/mL
same,"IFN-γ EC50 (C24:1 βGluCer, moDC)",Human CD1d on cells [6],0.995 ng/mL
same,"IL-4 EC50 (C24:1 βGluCer, moDC)",Human CD1d on cells [6],0.636 ng/mL
same,"IL-5 EC50 (C24:1 βGluCer, moDC)",Human CD1d on cells [6],0.929 ng/mL
same,"IL-13 EC50 (C24:1 βGluCer, moDC)",Human CD1d on cells [6],2.94 ng/mL
same,"TNF-α EC50 (C24:1 βGluCer, moDC)",Human CD1d on cells [6],1.51 ng/mL
same,IFN-γ EC50 (THP-1),Human CD1d on cells [7],2.4 ng/mL
same,IL-4 EC50 (THP-1),Human CD1d on cells [7],1.7 ng/mL
same,IL-5 EC50 (THP-1),Human CD1d on cells [7],1.2 ng/mL
same,IL-13 EC50 (THP-1),Human CD1d on cells [7],1.5 ng/mL
same,Kd,Human CD1d/β2M [8],0.145 nM
same,IL-2 release EC50 (U-937 + NKTCR cell line),Human CD1d on cells [9],4.5 ng/mL
same,EC50,[10],0.165 µg/mL
same,"percent CD1d-positive cells, Donor 1",[11],81.3%
same,"percent CD1d-positive cells, Donor 2",[11],64%
same,Kd,Human CD1d/β2M [12],0.304 nM
same,koff,Human CD1d/β2M [12],0.000161 s⁻¹
same,kon,Human CD1d/β2M [12],530000 M⁻¹ s⁻¹
same,NKT IFN-γ EC50 (moDC),Human CD1d on cells [13],0.105 ng/mL
same,NKT IL-13 EC50 (moDC),Human CD1d on cells [13],0.154 ng/mL
B2,NKT IL-4 EC50 (moDC),Human CD1d on cells [14],0.58 ng/mL
same,NKT IL-13 EC50 (moDC),Human CD1d on cells [14],3.84 ng/mL
same,"fold improvement against 401.11 (IFN-γ, moDC)",Human CD1d on cells [4],~4.8 fold
same,fold potency against antibody 42 (C24:1 βGluCer),Human CD1d on cells [4],≤ 216 fold
same,fold potency against antibody 51.1 (C24:1 βGluCer),Human CD1d on cells [4],≤ 175 fold
same,NKT IFN-γ EC50 (THP-1),Human CD1d on cells [15],2.6 ng/mL
same,NKT IFN-γ EC50 (moDC),Human CD1d on cells [15],3 ng/mL
same,NKT IL-4 EC50 (THP-1),Human CD1d on cells [15],2.2 ng/mL
same,NKT IL-4 EC50 (moDC),Human CD1d on cells [15],1.16 ng/mL
same,NKT IL-13 EC50 (THP-1),Human CD1d on cells [15],4.35 ng/mL
same,Kd,Human CD1d/β2M [16],0.189 nM
same,"IFN-γ EC50 (C24:1 βGluCer, moDC)",Human CD1d on cells [6],0.64 ng/mL
same,"IL-4 EC50 (C24:1 βGluCer, moDC)",Human CD1d on cells [6],0.682 ng/mL
same,"IL-5 EC50 (C24:1 βGluCer, moDC)",Human CD1d on cells [6],0.868 ng/mL
same,"IL-13 EC50 (C24:1 βGluCer, moDC)",Human CD1d on cells [6],1.44 ng/mL
same,"TNF-α EC50 (C24:1 βGluCer, moDC)",Human CD1d on cells [6],0.842 ng/mL
same,NKT IFN-γ EC50 (moDC),Human CD1d on cells [17],2.8 ng/mL
same,NKT IL-4 EC50 (moDC),Human CD1d on cells [17],0.432 ng/mL
same,NKT IL-5 EC50 (moDC),Human CD1d on cells [17],0.704 ng/mL
same,NKT IL-13 EC50 (moDC),Human CD1d on cells [17],0.598 ng/mL
same,NKT IFN-γ EC50 (THP-1),Human CD1d on cells [18],6.4 ng/mL
same,NKT IL-4 EC50 (THP-1),Human CD1d on cells [18],2.66 ng/mL
same,NKT IL-5 EC50 (THP-1),Human CD1d on cells [18],4.5 ng/mL
same,NKT IL-13 EC50 (THP-1),Human CD1d on cells [18],7.78 ng/mL
same,NKT TNF EC50 (THP-1),Human CD1d on cells [18],4.14 ng/mL
same,NKT IFN-γ EC50 (moDC),Human CD1d on cells [19],8.16 ng/mL
same,NKT IL-4 EC50 (moDC),Human CD1d on cells [19],2.19 ng/mL
same,NKT IL-5 EC50 (moDC),Human CD1d on cells [19],6.13 ng/mL
same,NKT IL-13 EC50 (moDC),Human CD1d on cells [19],9.82 ng/mL
same,NKT TNF EC50 (moDC),Human CD1d on cells [19],4.3 ng/mL
same,EC50 (read off the curve),Human CD1d/β2M [20],~8 ng/mL
same,binding result,Mouse CD1d [21],no binding
same,EC50 (read off the curve),mCD1dhu [22],~0.1 µg/mL
